Laboratory results: publication PMC10570038

Target: RBPMS-A dC20 (rat) (UniProt A0A8I6G705)
Assay: EMSA
Settings: apparent; EMSA: 10 nM RNA, 25 mM HEPES pH 7.9, 100 mM KCl, 2 mM MgCl2, 0.625 mM DTT, 0.1 mg/ml BSA, 5% glycerol, 30 C 1 h, then 5 mg/ml heparin 10 min; 5% native PAGE in …

Sequence of RBPMS-A dC20 (rat) (A0A8I6G705 1-177): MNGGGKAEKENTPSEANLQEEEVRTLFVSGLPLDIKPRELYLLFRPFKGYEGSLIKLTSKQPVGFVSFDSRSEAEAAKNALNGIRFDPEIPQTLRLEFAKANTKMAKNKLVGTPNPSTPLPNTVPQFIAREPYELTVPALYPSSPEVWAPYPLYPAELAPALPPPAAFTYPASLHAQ

## GUCUACGCACCCUCAACCCGCACCUUGCGGGAUG [(CAC)2]
  Kd: 2500 nM
